Experimental data published in paper PMC2670278 (Nature, 2009).

Target: factor H CCPs 6 & 7 (human, UniProt P08603, 402^His)
Assay: SPR

B1: factor H binding protein, construct comprising regions A, B and C but lacking the lipid anchor (natural protein)
chain: GGVAADIGAGLADALTAPLDHKDKGLQSLTLDQSVRKNEKLKLAAQGAEKTYGNGDSLNTGKLKNDKVSRFDFIRQIEVDGQLITLESGEFQVYKQSHSALTAFQTEQIQDSEHSGKMVAKRQFRIGDIAGEHTSFDKLPEGGRATYRGTAFGSDDAGGKLTYTIDFAAKQGNGKIEHLKSPELNVDLAAADIKPDGKRHAVISGSVLYNQAEKGSYSLGIFGGKAQEVAGSAEVKTVNGIRHIGLAAKQ
With B1 the Kd was ~5 nM.
